# Measured values reported in patent US20250325675A1, “APTAMER, CONJUGATE, COMPOSITION, METHOD FOR PREPARING SAME, AND USE THEREOF” (priority 2022, published 2025).
# Non-standard residues stand in square brackets, D forms with d. Residues, ends and D or L forms follow the SMILES beside them. *: point of attachment. Dolaproine = CO[C@@H]([C@@H]1CCCN1)[C@@H](C)C(=O)O; Dil = CC[C@H](C)[C@H](NC)[C@@H](CC(=O)O)OC; {MMAE} = monomethyl auristatin E payload; X1 = C[C@@H](N*)[C@@H](O)c1ccccc1; {Cy5} = cyanine 5 fluorescent dye; NMeV = CN[C@H](C(=O)O)C(C)C
# Tests used:
# [1] = tested on: U118MG subcutaneous tumor; test: Long-interval administration in U118MG subcutaneous tumor model mice (Experimental Example 23); assay type: in vivo; details: 0.1 or 0.3 mg/kg subcutaneous on D8, D11, D15, D29, D32, D36
# Method: According to the method of Experimental Example 4, 42 mice inoculated with U118MG subcutaneous tumor were obtained, and were further fed after injection.
# MMAE was dissolved into solutions with concentrations of 0.03 mg/mL and 0.01 mg/mL with 10% DMSO+90% serum-free DMEM medium (volume ratio). Conjugate 39 was dissolved into solutions with concentrations of 0.5 mg/mL and 0.165 mg/mL (based on aptamer). Comparative conjugate 44 was dissolved into solutions with concentrations of 0.5 mg/mL and 0.165 mg/mL (based on aptamer).
# 7 days after inoculation of U118MG cells, all mice were randomly divided into seven groups (6 mice per group), and each group of mice was administered. […] The mice were weighed before administration and the administration volume was calculated according to weight. […]
# The tumor volumes were measured on D1, D9, D16, D19, D21, D24, D26, D29, D32, D36, D39, D43, D47, D53, D57, D60, D64, D67, D71, D74, D78, D81, D84, D88, D92, D95, and D99, wherein the blank control group was measured on D53, and test groups 7a, 7b and control group 7c were measured on D60, and then the experiment was terminated.
# The long diameters and short diameters of the tumors were measured in vitro. The tumor volume was calculated according to the equation ½ (long diameter×short diameter^2). After the experiment was terminated, the tumor tissues were taken and weighed, and the average value was calculated.
# [2] = tested on: U118MG glioma subcutaneous tumor; test: In vivo anti-tumor activity in U118MG subcutaneous tumor mice (Experimental Example 11); design: species or system NOD-SCID mice
# Method: The mice in this experiment were purchased from SPF Co., LTD: the germline was NOD-SCID, the grade was SPF, male, 6-8 weeks old; U118MG neuroglioma cells were purchased from Jennio.
# The conjugate AP2 above was formulated into a 1.94 mg/mL solution with PBS. Conjugate 20 was respectively formulated into 0.625 mg/mL, 1.25 mg/mL and 2.06 mg/mL solutions with PBS (all calculated based on the amount of aptamer). MMAE (purchased from Shanghai Macklin Inc., Lot No. C12886583) was dissolved into a 0.038 mg/mL solution with a mixed solution of 10% DMSO+90% PBS (volume ratio).
# The day of inoculation is designated as D1, and administration is performed once on D8, D12, D16 and D20.
# 36 mice were randomly divided into the following 6 groups (6 mice per group):
# For blank control group 1, PBS was administered by tail vein injection with a single administration volume of 10 μL/g. […]
# The long diameters and short diameters of the tumors were measured in vitro. The tumor volume was calculated according to the equation ½ (long diameter×short diameter^2). Prior to the first administration on D8, the tumor volumes in each group were measured and the average tumor volumes were recorded; the tumor volumes in each group were measured and recorded from D16 (twice a week).
# [3] = tested on: U118MG glioma subcutaneous tumor; test: In vivo distribution in U118MG cell subcutaneous tumor model mice (Experimental Example 4); design: species or system NOD-SCID mice
# Method: U118MG human glioma cells in the logarithmic growth phase were selected and digested (0.25% pancreatic enzyme).
# The mice were further fed for 20 days after injection.
# The mice inoculated with U118MG above were randomly divided into 3 groups (4 mice per group). For the 4 mice per group, the administration volume was calculated according to 10 μL/g body weight, and AP1, AP2 and comparative AP11 were respectively administered to different groups of mice by tail vein injection and designated as test group 4A1, test group 4A2 and control group 4A3. Thus, the administration dosage of each mouse was 3 mg/kg (based on aptamer). Another mouse inoculated with U118MG above was administered with 1×DMEM medium by tail vein injection (the administration volume was 10 μL/g body weight), and designated as blank control group 4Y.
# [4] = tested on: U118MG subcutaneous tumor; test: In vivo distribution of conjugates with different modifications in U118MG subcutaneous tumor model mice (Experimental Example 6); design: species or system NOD-SCID mice; details: 3 mg/kg tail vein
# Method: U118MG subcutaneous tumor model mice were prepared according to the method described in experimental Example 4.
# 9 mice were divided into 3 groups (3 mice per group). AP2, AP3 and comparative AP12 solutions were respectively administered to each mouse of each group by tail vein injection. […] The three groups of mice were respectively designated as test group 6A, test group 6B and test group 6C. […] On Day 10 after administration, one mouse of blank control group 6Y and one mouse of test group 6A was respectively euthanized and tumor tissues were taken for fluorescence imaging, and the results are shown in FIG. 5H. In FIGS. 5A-5H, Blank represents blank control group 6Y.
# [5] = tested on: U118MG in situ brain glioma; details: mouse, in vivo, 3 mg/kg
# Method: (§1) U118MG human glioma cells in the logarithmic growth phase cultured as described in experimental Example 4 were selected and digested with 0.25% pancreatic enzyme. The cells were collected, the supernatant was aspirated, and then the cells were resuspended in DMEM medium supplemented with 10% FBS to be formulated into a cell culture solution with a cell density of 4×10^7 cells/mL.
# (§2) Experimental animals were 16 NOD-SCID mice (male, 12 weeks old, purchased from SPF (Beijing) Biotechnology Co., LTD.). […]
# (§3) AP1, AP2 and comparative AP11 were respectively dissolved into conjugate solutions with a concentration of 0.3 mg/mL (based on aptamer) with 1×DMEM medium. […] The administration dosage for all animals was calculated according to body weight, the administration volume was all 10 μL/g, and the administration dosage was 3 mg/kg per animal (based on the amount of aptamer). […]
# (§4) At 24 h after administration, one mouse in each group was respectively euthanized and brain tissue was taken, and the remaining mice were euthanized at 48 h after administration and brain tissues were taken. The brain tissues of mice were taken for fluorescence imaging in IVIS Lumina Series III.
# [6] = tested on: U118MG in situ brain glioma; test: In vivo distribution in U118MG cell tumor in situ model mice (Experimental Example 5); details: control groups 5C (intrathecal 100 μg) and 5F (tail vein 3 mg/kg); 24 h and 48 h
# Method: as §1, §2, §3, §4
# [7] = tested on: A549 subcutaneous tumors; test: In vivo activity in A549 subcutaneous tumor model mice (Experimental Example 25); details: 5 mg/kg (MMAE equivalent 0.3 mg/kg) D8, D12, D15, D19; 0.6 mg/kg MMAE equivalent D46, D50, D54; at each period of time
# Method: According to the method of Experimental Example 4, 30 mice inoculated with A549 subcutaneous tumors were obtained, and were further fed after injection.
# Conjugate 20 and conjugate 39 were dissolved into conjugate solutions with a concentration of 1 mg/mL (based on aptamer) with serum-free DMEM medium. Comparative conjugate 43 was dissolved into a conjugate solution with a concentration of 0.8 mg/mL (based on aptamer). MMAE was dissolved into a solution with a concentration of 0.06 mg/mL with 10% DMSO+90% serum-free DMEM medium (volume ratio).
# 7 days after the inoculation of A549 human lung cancer cells, all mice were divided into groups (6 mice each group), and each mouse was administered. The day of administration was designated as D8. The mice were weighed before administration, and the administration volume was calculated according to mouse body weight.
# Each group of mice was administered once on D8, D12, D15, and D19, four times in total. […]
# Tumor volumes were measured on D1, D9, D16, D19, D22, D26, D30, D36, D40, D43, D47, D50, D54, and D57, wherein the blank control group was measured on D54, and then the experiment was terminated.
# The long diameters and short diameters of the tumors were measured in vitro. The tumor volume was calculated according to the equation ½ (long diameter×short diameter^2).
compound,measurement,setting,value
"CC[C@H](C)[C@@H]([C@@H](CC(=O)N1CCC[C@H]1[C@H](OC)[C@@H](C)C(=O)N[C@H](C)[C@@H](O)c1ccccc1)OC)N(C)C(=O)[C@@H](NC(=O)[C@@H](NC)C(C)C)C(C)C [MMAE, Monomethylauristatin E, reference compound] (H-[NMeV]V[Dil][Dolaproine]-X1)",growth rate of tumor volume,[1],growth rate of tumor volume was reduced
same,growth rate of tumor volume,"[2]; control group 3: 0.3 mg/kg tail vein on D8, D12, D16, D20",growth rate of the tumor volume was reduced
CY5-CmUmGmGmAmGmUmUmCmAmGmAmCmGmUmGmUmUmGmCmUmCmUmUmCmCmGmAmUmCmUmCm [AP2],fluorescence signal in mice / at site of tumor inoculation,"[3]; mouse, in vivo",strong fluorescence signal at the sites of tumor inoculation
same,fluorescence intensity in vivo / tumor,[4]; 4 h to 24 h after administration,still show high fluorescence intensity
same,fluorescent signal in vivo / tumor,[4]; 48 h to Day 10 after administration,still show strong fluorescent signal
same,fluorescence signal at brain glioma,[5],obvious fluorescence signals at both 24 and 48 h
same,tumor volume over time,"[2]; control group 2: 15.5 mg/kg tail vein on D8, D12, D16, D20",increased rapidly
"CY5-UfCfUfAUfGGCfUfGCfCfGAUfCfUfGGUfCfUfCfCfAUfGUfACfGUf (UCUAUGGCUGCCGAUCUGGUCUCCAUGUACGU; 2'-fluoro at CU, RNA at AG, 5' {Cy5}, backbone not given here) [comparative AP11, reference compound]",fluorescence signal in mice / at site of tumor inoculation,"[3]; 3 mg/kg tail vein injection, 1 h, 4 h, 24 h, 48 h after administration",substantially no or weak fluorescence signal
same,"fluorescence signal at the tumor site, brain tissue",[6],no obvious fluorescence signal at the tumor site
"MMAE-CmUmGmGmAmGmUmUmCmAmGmAmCmGmUmGmUmUmGmCmUmCmUmUmCmCmGmAmUmCmUmCm (CUGGAGUUCAGACGUGUUGCUCUUCCGAUCUC; all 2'-O-methyl, 5' {MMAE}, backbone not given here) [conjugate 20]",tumor volume versus control groups 25b (MMAE) and 25e (comparative conjugate 43),[7],smaller than those of control groups 25b and 25e
"MMAE-CmUmGmGmAmGmUmUmCmAmGmAmCmGmUmUmGmUmGmCmUmCmUmUm (CUGGAGUUCAGACGUUGUGCUCUU; all 2'-O-methyl, 5' {MMAE}, backbone not given here) [conjugate 39]",tumor volume versus control groups 25b (MMAE) and 25e (comparative conjugate 43),[7],smaller than those of control groups 25b and 25e
